Data: a protein production outcome set (Wang et al. 2014)

Experiment: label from the status in PepcDB records

Sequence	protein production
MIALAASSLGNTPIASFNRHFRFRLHPRNPLIQAAVSPSSSSSSPTASSGFDLSSLESAINKKDSNGVKEALDKLSEEGWAKKWSSQPYLSRRTTSLRELTTLGIKNAETLAIPSVRNDAAFLFTVVGSTGFIAVLAGQLPGDWGFFVPYLVGSISLVVLAVGSVSPGLLQAAISGFSTFFPDYQERIAAHEAAHFLGTLEKFKSFDSKVAYLIGLPILGYSLDIGKEHVNLIDERLAKLIYSGKLDSKELDRLAAVAMAGLAAEGLKYDKVIGQSADLFSLQRFINRSQPKISNEQQQNLTRWAVLYSASLLKNNKTIHEALMAAMSKNASVLECIQTIETAS	failed
MIAQQFNRARHILRHNLVRPFYQPKFYLESGKLAGFEALLRWYDEDNQIQLPKLIINAFEDYSLASRLSEKMQLNIFKDMASWINQGLQLVPVSINAAPVEFLKDNYAELLLERLNQFEIPYHLIEIEITEHLLDDQGKNFISRALAKLKQNGIRIALDDFGTGHSSLTRLANLPVDCLKIDCDFVQRMEQEKFISALVQSVILMSNNLGIDVVAEGIESQEQLELLKQQGCEVGQGFLFSQALAPENARALLS	failed
MICLEKVEDIPRLQELFAQILIVHHQARSDVLKVKGSKFTDKELEGVIGDANKPVFVYEDEAGTILCHLFLIIKEVSENDGPQKPIKTLFIDDLCVEEKARGQKLGEKLYQFALDYATEQECYNATLHVWNDNQGTLDFYEHLGVKPRYTEMKTVLKLEHHHHHH	failed
MIDAQMSERFPARINILAVNSPGSLAEITQVISANDANIQNLSFIRTAPDFTEIMIDLEVWDLKHLNRIFSQLKKAGSVSTVRRGHGLEHHHHHH	failed
MIDCAIIGGGPAGLSAGLYATRGGVKNAVLFEKGMPGGQITGSSEIENYPGVKEVVSGLDFMQPWQEQCFRFGLKHEMTAVQRVSKKDSHFVILAEDGKTFEAKSVIIATGGSPKRTGIKGESEYWGKGVSTCATCDGFFYKNKEVAVLGGGDTAVEEAIYLANICKKVYLIHRRDGFRCAPITLEHAKNNDKIEFLTPYVVEEIKGDASGVSSLSIKNTATNEKRELVVPGFFIFVGYDVNNAVLKQEDNSMLCKCDEYGSIVVDFSMKTNVQGLFAAGDIRIFAPKQVVCAASDGATAALSVISYLEHH	failed
MIDEKFLIESNELVESSKIVMVGTNGENGYPNIKAMMRLKHDGLKKFWLSTNTSTRMVERLKKNNKICLYFVDDNKFAGLMLVGTIEILHDRASKEMLWTDGCEIYYPLGIDDPDYTALCFTAEWGNYYRHLKNITFKIDEIYNY	not failed
MIDIHSHIVFDVDDGPKTLEESLSLIEESYRQGVRIIVSTSHRRKGMFETPEDIIFKNFSIVKHEAEKRFEHLQILYGGELYYTSDMLEKLKLKQIPTLNNTKFALIEFSMQTSWKDIHTALSNVLMLGITPVVAHIERYNALENQKERVKEIINMGCYTQINSSHILKQKLFNDKHKRFKKRARYFLEENLVHFVASDMHNLDVRPPFLAEAYKIICRDFGKERANQLFIENAQSILKNHYI	failed
MIDLNEALAKDRWIGRLASHLDGFEALLDGQGYAKTTVQQKIKLLAGFSAWVERQDVPLSLLGEEDADLFLTELGLRPRRGDAWTIRQLVRYLRDTGGVPVLLPEVDTSAKGKLIDAFGEFLRKERGLSASTLTNYLPIIRGFLDEQFGGKDPGFDHLRVGDVHRFIVRRAQAGSLGRAKLAVTALRSFLRFLQQRGLLATDLAVAVPGIAGWRLAHLPKALRAEQVERLLASCDRRTPAGRRDYAVLMLLARLGLRGGEVSALTLDDLDWDCGEIVVHGKGQRLARLPLPADVGAALVDYLRQDRPACSTRRVFIRTRAPRRGFVSQSTICCIVRRALKRAGLTPAFKGAHLLRHSLATDLLRRGASLVEIGQLLRHSQPNTTQIYAKVDIAALRAIALPWPGVAS	failed
MIDSQFQFTVLTPTYNRAVTLHRVFQSLQRQTCRDFEWVVVDDGSTDNTHEVVRAWQAQADFPIRYVWQHNQHKKTAFNRGVREARGMLVVGLDSDDEIPPDALAILKDAWEGIPADRRETYVAVTGLCARPDGSIVGDRFPQDVFDSTAVDMYFRYRVQGEKFGAMRADVLRRFPFPEDVAGFVPESLVWWAISRAGYLSRFINRVVRVYHDTPGGLSQGGVSLSSNIQGLYLLAWDMLQHHLDWFRYRPREFIMAAARYTRFRLHLDNSGLPTAVQAYRLTQPSARLLVLLMWPLGYLLYRRDRRRGVA	failed
